# Assay results from patent publication US20240336900A1, “METHODS AND COMPOSITIONS RELATED TO MODIFIED METHYLTRANSFERASES AND ENGINEERED BIOSENSORS” (BOARD OF REGENTS, THE UNIVERSITY OF TEXAS SYSTEM, priority 2023, published 2024).
# B1: A53M mutant: Nb4OMT variant with mutation A53M (protein)
# chain: MGASIDDYSLVHKNILHSEDLLKYILETSAYPREHEQLKGLREVTEKHEWSSMLVPADEGLFLSMLLKLMNAKRTIEIGVYTGYSLLTTALALPEDGKITAIDVNKSYYEIGLPFIQKAGVEHKINFIESEALPVLDQMLEEMKEEDLYDYAFVDADKSNYANYHERLVKLVRIGGAILYDNTLWYGSVAYPEYPGLHPEEEVARLSFRNLNTFLAADPRVEISQVSIGDGVTICRRLY
# modifications: Description of sequence: Improved enzyme variant A53M
# How the values were obtained:
# [1] = Biosensor-linked O-methyltransferase activity assay; assay type: cell-based, Escherichia coli; settings: single mutational designs; 25, 30, 37 °C; 100 uM, 1 mM norbelladine
# Experimental: Nb4OMT was expressed with the P150-RBS (riboJ) promoter-RBS on the pReg-RamR plasmid backbone (no regulator present). Cells were co-transformed with both the 40MT plasmid and the 4NB reporter plasmid and plated on an LB agar plate containing appropriate antibiotics. Three individual colonies from each transformation were picked into LB and grown overnight. Resulting cultures were diluted 50-fold into 1 ml LB medium containing the indicated concentration of norbelladine in a 96-deep-well plate and were grown at the indicated temperature for 24 h. Subsequently, the fluorescence of cultures was measured in the same manner as previously described in Dose-response measurement above.
# [2] = HPLC and LC/MS analysis of in vivo Nb4OMT reaction supernatant; assay type: cell-based, Escherichia coli; settings: relative to wild-type Nb4OMT
# Experimental: Assay samples were filtered using a 0.2-um PTFE syringe filter prior to running the HPLC. The measurement of Norbelladine and 4-O'Methyl-norbelladine was performed using a Vanquish HPLC system (Thermo Fisher Scientific) equipped with a BDS Hypersil TM C18 (3.0×150 mm 2, 3 um) (Thermo Fisher Scientific) with detection wavelength 277 nm. The mobile phase consisted of 0.1% formic acid in water or 0.1% formic acid in acetonitrile over the course of 28 minutes under the following conditions: 10% organic (vol/vol) for 2 minutes, 10 to 30% organic (vol/vol) for 13 minutes, 30 to 90% organic (vol/vol) for 0.1 minutes, 90% organic (vol/vol) for 4.9 minutes, 90 to 10% organic (vol/vol) for 1 minute, and 10% organic (vol/vol) for 7 minutes. The flow rate was fixed at 0.8 ml min-1. A standard curve for norbelladine was prepared using synthesized norbelladine (see Chemical synthesis and NMR analysis of norbelladine). A standard curve for 4-O'Methyl-norbelladine was prepared using commercially available 4-O'Methyl-norbelladine.
# Cells containing the plasmid expressing each Nb4OMT variant with the P150-RBS (RiboJ) promoter were transformed and plated onto an LB agar plate containing appropriate antibiotics. […]
# Samples were analyzed using an Agilent 6530 Q-TOF LC-MS with a dual Agilent Jet Stream electrospray ionization source in positive mode. […]
# [3] = Steady state kinetics of purified Nb4OMT variants; assay type: biochemical
# Experimental: Reactions for kinetics measurements were performed in triplicate for all enzyme variants. For each variant 1.5 ml reactions containing 3.5 nM of enzyme, 500 μM SAM, 2 mM CaCl2), and 15.625, 31.25, 62.5, 125, 250, or 500 μM norbelladine in PBS pH 7.5 were incubated at 37° C. for 4 hours. Every hour a 200 μl aliquot of each reaction was quenched by pipetting it into a 1.5 ml microcentrifuge tube with 20 μl of 2M HCl. The concentration of 4′-O-Methylnorbelladine was then determined using HPLC as described.
# Kinetic data were fit in KinTek Explorer simulation and data fitting software v11 (Roy, 2018). The following minimal model was used as an input. Each line represents a step in the model and the forward reaction goes from left to right while the reverse reaction goes from right to left as written. • (1) E+S=ES • (2) ES=EP • (3) EP=E+P • (4) S=P2
# 3.5 nM enzyme and 15.625, 31.25, 62.5, 125, 250, and 500 M substrate. The output observable was defined as EP+P. Substrate oxidation was modeled in step (4) as irreversible with a best fit value from globally fitting data from all variants to derive k4=0.00547 min^−1.To get kout/Km and kcat: k−1, k−2, and k−3 were locked at 0 min-1 (irreversible reactions). k+3 was locked at 10,000 min-1 as to not limit the rate of turnover. k+1 and k+2 were used as variable parameters in the fitting. Under these conditions, k+2=kcat and k+1=kcat/Km. For estimates of 95% confidence intervals on kinetic parameters, confidence contour analysis was used with the FitSpace function in KinTek Explorer (Bhattacharya, 2015). Confidence contour plots are calculated by systematically varying a single rate constant and holding it fixed at a particular value while refitting the data, allowing other rate constants to float. The goodness of fit was scored by the resulting χ^2 value. The confidence interval is defined based on a threshold in χ^2 calculated from the F-distribution based on the number of data points and number of variable parameters to give the 95% confidence limits. For the data given in FIGS. 20A-20C, this threshold was 0.85 to estimate the upper and lower limits for each parameter. […] We then fit the data for these two variants to the model shown below, accounting for substrate inhibition.
# As before, k+1 was allowed to float in the fitting to give kcat/Km, and k−1 was locked at 0 min^−1, k+2 was allowed to float in the fitting to give kcat, and k−2 was locked at 0 min^−1. k+3 was locked at 10,000 min^−1, and k−3 was locked at 0 min^−1. k+4 and k+6 were locked at 100 μM^−1 min^−1, and k−4 and k−6 were allowed to float in the fitting as linked parameters. k+5 was linked to k+1 and k−5 was locked at 0 min^−1. k−7 was locked at 0 min^−1, and k+7 was locked at 0.00547 min^−1.
# [4] = Differential scanning fluorimetry; assay type: physicochemical
# Experimental: Purified Nb4OMT variants in the concentration of 5 μM were prepared in 96-well low-profile PCR plates (ABgene, Thermo Scientific). 10×SYPRO® Orange (Molecular Probes) was added into each well and mixed prior to measurement in an RT-PCR machine (LightCycler 480, Roche). The protein melting experiments were carried out with a continuous temperature acquisition mode using 10 acquisitions per 1° C. in each cycle from 20° C. to 95° C. The melting curves of the Nb4OMT variants were monophasic and Tm values were derived using Boltzmann equation.
molecule,measurement,setting,value
B1,fluorescent signal relative to the wild-type enzyme,[1],significantly above the wild-type enzyme
same,reduction of 3-O'Methyl-norbelladine off-product,[2],about 3 fold
same,increase in keut relative to the wild-type enzyme,[3],> 2.1 fold
same,increase of kcal/Km relative to the wild-type enzyme,[3],about 2 fold
same,kcat,"[3]; 3.5 nM enzyme, 500 μM SAM, 37° C., PBS pH 7.5",>3.17 s⁻¹
same,Km,[3]; calculated by dividing kcat by kcat/Km,< 90 µM
same,substrate inhibition,"[3]; steady state kinetic data, highest norbelladine concentration",affected by substrate inhibition
same,increase in Tm relative to the wild-type enzyme,[4],1.7 °C
same,Tm,"[4]; 5 μM protein, SYPRO Orange",54.5 °C
